Measured values as given in patent US20210380703A1 (RIGEL PHARMACEUTICALS, published 2021).

Key:
[1] = biological target: T1, biotinylated goat anti-human kappa light chain; test: ELISA; positive control
T1 construct: Positive control of the ELISA
In short: (§1)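 ELISA measured binding of ACVR2A-specific monoclonal antibodies to human and mouse ACVR2A. Biotinylated goat anti-human kappa light chain served as positive control and human Fc as negative control.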

human ACVR2A = human ACVR2A (human, UniProt P27037 20-135, limits assumed); test: ELISA
Chain of human ACVR2A (P27037 20-135 limits assumed): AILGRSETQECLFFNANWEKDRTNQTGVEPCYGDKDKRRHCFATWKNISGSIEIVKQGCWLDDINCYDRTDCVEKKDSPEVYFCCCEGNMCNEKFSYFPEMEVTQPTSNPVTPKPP
In short: as §1

mouse ACVR2A = mouse ACVR2A (mouse, UniProt P27038 20-135, limits assumed); test: ELISA
Chain of mouse ACVR2A (P27038 20-135 limits assumed): as the sequence (P27037 20-135 limits assumed) above, with K20R, V73I counted along it
In short: as §1
Further: test concentration or dose not given here.

Row | Binder | optical density [1] | optical density (human ACVR2A) | optical density (mouse ACVR2A)
1 | 369_A05 (antibody, V domains shown, VH/VL only) VH: EVQLLESGGGLVQPGGSLRLSCAASGFTFSSYSMNWVRQAPGKGLEWVAGINYNGGYTGYADSVKGRFTISRDNSKNTLYLQMNSLRAEDTAVYYCARSATWHDTHLDYWGQGTLVTVSS VL: DIQMTQSPSSLSASVGDRVTITCRASQSILTYVNWYQQKPGKAPKLVIYAATSRASGVPSRFSGSGSGTDFTLTISSLQPEDFATYYCQQSYESPLTFGGGTKVEIK | 3.48 OD | 3.29 OD | 3.25 OD
2 | 369_C10 (antibody, V domains shown, VH/VL only) VH: EVQLLESGGGLVQPGGSLRLSCAASGFTFSSYSMNWVRQAPGKGLEWVANINYNGGYTSYADSVKGRFTISRDNSKNTLYLQMNSLRAEDTAVYYCARSATWHDTALDYWGQGTLVTVSS VL: DIQMTQSPSSLSASVGDRVTITCRASQSIVTYLNWYQQKPGKAPKLLIYAATSLHSGVPSRFSGSGSGTDFTLTISSLQPEDFATYYCQQSDSLPLTFGGGTKVEIK | 3.37 OD | 2.48 OD | 2.46 OD
3 | 368_H07 (antibody, V domains shown, VH/VL only) VH: EVQLLESGGGLVQPGGSLRLSCAASGFTFSSYGMHWVRQAPGKGLEWVASINYNSGYTSYADSVKGRFTISRDNSKNTLYLQMNSLRAEDTAVYYCARSATWHDTHLDYWGQGTLVTVSS VL: DIQMTQSPSSLSASVGDRVTITCRASQSILSYLNWYQQKPGKAPKLLIYAATSRASGVPSRFSGSGSGTDFTLTISSLQPEDFATYYCQQSYENPLTFGGGTKVEIK | 3.55 OD | 2.71 OD | 2.86 OD
4 | 369_F07 (antibody, V domains shown, VH/VL only) VH: EVQLLESGGGLVQPGGSLRLSCAASGFTFDSYSMNWVRQAPGKGLEWVAGINYNGGYKSYADSVKGRFTISRDNSKNTLYLQMNSLRAEDTAVYYCARSATWHDTHLDYWGQGTLVTVSS VL: DIQMTQSPSSLSASVGDRVTITCRASQSILSYVNWYQQKPGKAPKLVIYAATSRASGVPSRFSGSGSGTDFTLTISSLQPEDFATYYCQQSYESPLTFGGGTKVEIK | 3.47 OD | 3.43 OD | 3.43 OD
5 | 370_A06 (antibody, V domains shown, VH/VL only) VH: EVQLLESGGGLVQPGGSLRLSCAASGFTFSSYSMNWVRQAPGKGLEWVASINYNSGYKSYADSVKGRFTISRDNSKNTLYLQMNSLRAEDTAVYYCARSATWHDTHLDYWGQGTLVTVSS VL: DIQMTQSPSSLSASVGDRVTITCRASQSIVTYLNWYQQKPGKAPKLVIYAATSLASGVPSRFSGSGSGTDFTLTISSLQPEDFATYYCQQSYDLPLTFGGGTKVEIK | 3.47 OD | 2.59 OD | 2.77 OD
6 | 369_E10 (antibody, V domains shown, VH/VL only) VH: EVQLLESGGGLVQPGGSLRLSCAASGFTFSSYSMNWVRQAPGKGLEWVSNINYNGGYKSYADSVKGRFTISRDNSKNTLYLQMNSLRAEDTAVYYCARSATWHDTALDYWGQGTLVTVSS VL: DIQMTQSPSSLSASVGDRVTITCRASQSILSYVNWYQQKPGKAPKLVIYAATSRASGVPSRFSGSGSGTDFTLTISSLQPEDFATYYCQQSYDLPLTFGGGTKVEIK | 3.59 OD | 3.36 OD | 3.53 OD
7 | 370_B05 (antibody, V domains shown, VH/VL only) VH: EVQLLESGGGLVQPGGSLRLSCAASGFTFSSYGMNWVRQAPGKGLEWVASINYNGGYTSYADSVKGRFTISRDNSKNTLYLQMNSLRAEDTAVYYCARSATWHDTHLDYWGQGTLVTVSS VL: DIQMTQSPSSLSASVGDRVTITCRASQSILTYVNWYQQKPGKAPKLVIYAATSRASGVPSRFSGSGSGTDFTLTISSLQPEDFATYYCQQSYENPLTFGGGTKVEIK | 3.49 OD | 2.84 OD | 3.11 OD
8 | 369_G07 (antibody, V domains shown, VH/VL only) VH: EVQLLESGGGLVQPGGSLRLSCAASGFTFSSYSMNWVRQAPGKGLEWVAGINYNGGYTSYADSVKGRFTISRDNSKNTLYLQMNSLRAEDTAVYYCARSATWHDTHLDYWGQGTLVTVSS VL: DIQMTQSPSSLSASVGDRVTITCRASQSILTYVNWYQQKPGKAPKLVIYAATSRASGVPSRFSGSGSGTDFTLTISSLQPEDFATYYCQQSYDNPLTFGGGTKVEIK | 2.98 OD | 3.32 OD | 3.37 OD
9 | 370_C04 (antibody, V domains shown, VH/VL only) VH: EVQLLESGGGLVQPGGSLRLSCAASGFTFSSYGMNWVRQAPGKGLEWVASINYNSGYTSYADSVKGRFTISRDNSKNTLYLQMNSLRAEDTAVYYCARSATWHDTHLDYWGQGTLVTVSS VL: DIQMTQSPSSLSASVGDRVTITCRASQSILSYLNWYQQKPGKAPKLLIYAASSLQSGVPSRFSGSGSGTDFTLTISSLQPEDFATYYCQQSYENPLTFGGGTKVEIK | 3.6 OD | 2.32 OD | 2.63 OD
10 | 369_A10 (antibody, V domains shown, VH/VL only) VH: EVQLLESGGGLVQPGGSLRLSCAASGFTFDSYSMNWVRQAPGKGLEWVAGINYNSGYTGYADSVKGRFTISRDNSKNTLYLQMNSLRAEDTAVYYCARSATWHDTHLDYWGQGTLVTVSS VL: DIQMTQSPSSLSASVGDRVTITCRASQSILSYLNWYQQKPGKAPKLLIYAATSRASGVPSRFSGSGSGTDFTLTISSLQPEDFATYYCQQSYELPLTFGGGTKVEIK | 3.41 OD | 3.38 OD | 3.14 OD
11 | 368_H01 (antibody, V domains shown, VH/VL only) VH: EVQLLESGGGLVQPGGSLRLSCAASGFTFSSYSMNWVRQAPGKGLEWVAGINYNSGYKSYADSVKGRFTISRDNSKNTLYLQMNSLRAEDTAVYYCARSATWHDTHLDYWGQGTLVTVSS VL: DIQMTQSPSSLSASVGDRVTITCRASQSILSYLNWYQQKPGKAPKLLIYATTSLASGVPSRFSGSGSGTDFTLTISSLQPEDFATYYCQQSYDNPLTFGGGTKVEIK | 3.69 OD | 3.03 OD | 3.14 OD
12 | 369_B02 (antibody, V domains shown, VH/VL only) VH: EVQLLESGGGLVQPGGSLRLSCAASGFTFDSYSMNWVRQAPGKGLEWVSGINYNGGYKSYADSVKGRFTISRDNSKNTLYLQMNSLRAEDTAVYYCARSATWHDTHLDYWGQGTLVTVSS VL: DIQMTQSPSSLSASVGDRVTITCRASQSILSYLNWYQQKPGKAPKLVIYAATSRASGVPSRFSGSGSGTDFTLTISSLQPEDFATYYCQQSYNLPLTFGGGTKVEIK | 3.52 OD | 3.4 OD | 3.55 OD
13 | 369_B12 (antibody, V domains shown, VH/VL only) VH: EVQLLESGGGLVQPGGSLRLSCAASGFTFDSYSMNWVRQAPGKGLEWVSGINYNGGYKSYADSVKGRFTISRDNSKNTLYLQMNSLRAEDTAVYYCARSATWHDTHLDYWGQGTLVTVSS VL: DIQMTQSPSSLSASVGDRVTITCRASQSILTYVNWYQQKPGKAPKLLIYATTSLASGVPSRFSGSGSGTDFTLTISSLQPEDFATYYCQQSYDSPLTFGGGTKVEIK | 3.56 OD | 2.67 OD | 2.76 OD

Results, then the binder that gave them:

Row | optical density [1] | optical density (human ACVR2A) | optical density (mouse ACVR2A) | Binder
14 | 3.62 OD | 2.44 OD | 2.81 OD | 368_G09 (antibody, V domains shown, VH/VL only) VH: EVQLLESGGGLVQPGGSLRLSCAASGFTFDSYGMHWVRQAPGKGLEWVANINYNGGYTSYADSVKGRFTISRDNSKNTLYLQMNSLRAEDTAVYYCARSATWHDTHLDYWGQGTLVTVSS VL: DIQMTQSPSSLSASVGDRVTITCRASQSIVSYLNWYQQKPGKAPKLVIYAATSRASGVPSRFSGSGSGTDFTLTISSLQPEDFATYYCQQSYDTPLTFGGGTKVEIK
15 | 2.22 OD | 1.62 OD | 1.58 OD | 369_B09 (antibody, V domains shown, VH/VL only) VH: EVQLLESGGGLVQPGGSLRLSCAASGFTFDSYGMHWVRQAPGKGLEWVASINYNGGYTSYADSVKGRFTISRDNSKNTLYLQMNSLRAEDTAVYYCARSATWHDTHLDYWGQGTLVTVSS VL: DIQMTQSPSSLSASVGDRVTITCRASQSILTYLNWYQQKPGKAPKLLIYAATSRASGVPSRFSGSGSGTDFTLTISSLQPEDFATYYCQQSYENPLTFGGGTKVEIK
16 | 3.45 OD | 2.99 OD | 2.99 OD | 369_D11 (antibody, V domains shown, VH/VL only) VH: EVQLLESGGGLVQPGGSLRLSCAASGFTFSSYGMHWVRQAPGKGLEWVASINYNGGYTSYADSVKGRFTISRDNSKNTLYLQMNSLRAEDTAVYYCARSATWHDTHLDYWGQGTLVTVSS VL: DIQMTQSPSSLSASVGDRVTITCRASQSILTYLNWYQQKPGKAPKLVIYAATSLASGVPSRFSGSGSGTDFTLTISSLQPEDFATYYCQQSDELPLTFGGGTKVEIK
17 | 3.57 OD | 2.64 OD | 2.69 OD | 368_H12 (antibody, V domains shown, VH/VL only) VH: EVQLLESGGGLVQPGGSLRLSCAASGFTFDSYSMNWVRQAPGKGLEWVASINYNSGYKGYADSVKGRFTISRDNSKNTLYLQMNSLRAEDTAVYYCARSATWHDTHLDYWGQGTLVTVSS VL: DIQMTQSPSSLSASVGDRVTITCRASQSIVTYLNWYQQKPGKAPKLLIYAATSRASGVPSRFSGSGSGTDFTLTISSLQPEDFATYYCQQSYESPLTFGGGTKVEIK
18 | 3.45 OD | 3.44 OD | 3.5 OD | 370_E07 (antibody, V domains shown, VH/VL only) VH: EVQLLESGGGLVQPGGSLRLSCAASGFTFDSYSMNWVRQAPGKGLEWVANINYNGGYTGYADSVKGRFTISRDNSKNTLYLQMNSLRAEDTAVYYCARSATWHDTHLDYWGQGTLVTVSS VL: DIQMTQSPSSLSASVGDRVTITCRASQSILTYLNWYQQKPGKAPKLLIYAATSRASGVPSRFSGSGSGTDFTLTISSLQPEDFATYYCQQSYDNPLTFGGGTKVEIK
19 | 3.6 OD | 2.73 OD | 2.82 OD | 369_F12 (antibody, V domains shown, VH/VL only) VH: EVQLLESGGGLVQPGGSLRLSCAASGFTFSSYSMNWVRQAPGKGLEWVASINYNSGYKSYADSVKGRFTISRDNSKNTLYLQMNSLRAEDTAVYYCARSATWHDTHLDYWGQGTLVTVSS VL: DIQMTQSPSSLSASVGDRVTITCRASQSIISYLNWYQQKPGKAPKLLIYAVTSLASGVPSRFSGSGSGTDFTLTISSLQPEDFATYYCQQSYENPLTFGGGTKVEIK
